Reference: publication PMC5573083, “Structural and Functional Analysis of the Escherichia coli Acid-Sensing Histidine Kinase EvgS” (Journal of Bacteriology, 2017)

Molecular target: the molecule itself
Experiment: AUC; purified protein dialysed against 50 mM Tris-HCl pH 7; OD280 of 1 (printed as 0.1 μM protein); 40,000 rpm, 20°C; 200 scans; analysed with Sedfit; monomer to dimer

B1: EvgS-Cyt (entire cytoplasmic region of the Escherichia coli histidine kinase EvgS, residues 553 to 1193) (domain or fragment, UniProt P30855 553-1193, looked up)
chain: WGFYLLRSVRRRKVIQGDLENQISFRKALSDSLPNPTYVVNWQGNVISHNSAFEHYFTADYYKNAMLPLENSDSPFKDVFSNAHEVTAETKENRTIYTQVFEIDNGIEKRCINHWHTLCNLPASDNAVYICGWQDITETRDLINALEVEKNKAIKATVAKSQFLATMSHEIRTPISSIMGFLELLSGSGLSKEQRVEAISLAYATGQSLLGLIGEILDVDKIESGNYQLQPQWVDIPTLVQNTCHSFGAIAASKSIALSCSSTFPEHYLVKIDPQAFKQVLSNLLSNALKFTTEGAVKITTSLGHIDDNHAVIKMTIMDSGSGLSQEEQQQLFKRYSQTSAGRQQTGSGLGLMICKELIKNMQGDLSLESHPGIGTTFTITIPVEISQQVATVEAKAEQPITLPEKLSILIADDHPTNRLLLKRQLNLLGYDVDEATDGVQALHKVSMQHYDLLITDVNMPNMDGFELTRKLREQNSSLPIWGLTANAQANEREKGLSCGMNLCLFKPLTLDVLKTHLSQLHQVAHIAPQYRHLDIEALKNNTANDLQLMQEILMTFQHETHKDLPAAFQALEAGDNRTFHQCIHRIHGAANILNLQKLINISHQLEITPVSDDSKPEILQLLNSVKEHIAELDQEIAVFC
notes: EvgS sensor histidine kinase, Escherichia coli, cytoplasmic domains comprising amino acid residues 553 to 1193; expected monomer mass printed as 72.3 kDa; Amplified from pBADEvgS and cloned NdeI-HindIII into a modified pET41c in which the GST tag is replaced by a C-terminal His8 tag; By the forward primer a start methionine precedes R553 (ATGCGCTCAGTTCGTCGTCGT); No cleavage of the tag is …
  stoichiometry N: 2
